1 substance from publication PMC11111093 can be followed below.

In the assay the target is HA-ADAP (UniProt O15117). In words: co-IP; HEK293T co-transfected with HA-ADAP and Flag-RIG-I or Flag-tagged RIG-I truncations, lysates 48 h after transfection; anti-HA immunoprecipitation, anti-Flag blot.
Chain of UniProt O15117 (O15117 whole entry, the tested form may be a part): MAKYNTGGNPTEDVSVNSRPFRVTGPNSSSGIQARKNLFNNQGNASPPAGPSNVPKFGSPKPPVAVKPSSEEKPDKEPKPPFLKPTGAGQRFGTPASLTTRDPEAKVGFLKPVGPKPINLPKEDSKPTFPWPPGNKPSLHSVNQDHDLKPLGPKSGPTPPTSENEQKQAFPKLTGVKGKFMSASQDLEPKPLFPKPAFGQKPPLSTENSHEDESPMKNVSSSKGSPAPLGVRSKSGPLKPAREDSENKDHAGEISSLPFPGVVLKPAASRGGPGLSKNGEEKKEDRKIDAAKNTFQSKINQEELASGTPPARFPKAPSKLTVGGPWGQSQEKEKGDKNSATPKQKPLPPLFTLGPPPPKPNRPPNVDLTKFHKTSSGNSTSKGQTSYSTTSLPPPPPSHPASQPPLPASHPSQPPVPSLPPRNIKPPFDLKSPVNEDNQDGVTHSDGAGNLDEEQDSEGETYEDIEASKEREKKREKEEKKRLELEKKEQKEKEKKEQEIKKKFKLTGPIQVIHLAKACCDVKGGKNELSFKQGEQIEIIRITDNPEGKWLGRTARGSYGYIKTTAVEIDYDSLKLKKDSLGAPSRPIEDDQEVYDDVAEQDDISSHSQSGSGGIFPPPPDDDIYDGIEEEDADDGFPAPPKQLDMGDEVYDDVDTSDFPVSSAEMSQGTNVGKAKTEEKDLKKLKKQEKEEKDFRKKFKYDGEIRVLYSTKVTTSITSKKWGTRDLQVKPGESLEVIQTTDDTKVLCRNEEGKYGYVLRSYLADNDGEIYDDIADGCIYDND

The substance “Flag-RIG-I helicase domain (aa 239-734) (from UniProt O95786 239-734) (domain or fragment)” gave a percent decrease in binding compared to wild-type RIG-I of 60%.
